Results on 11 molecules are retold here after patent publication KR20210118351A (dated 2021).

Common to all, as to assay: cell-based or functional assay
Experiment [1] deals with S protein of SARS-CoV-2 hCoV-19/South Korea/KUMC17/2020 (614G) (SARS-CoV-2, UniProt P0DTC2 14-1273).
Experiment [2] has as its target T1, S protein of SARS-CoV-2 BetaCoV/Korea/KCDC03/2020 (614D, S형) (SARS-CoV-2, UniProt P0DTC2 14-1273).
The target of experiment [3] is T1, S protein of SARS-CoV-2 …. The source holds these as a separate data set.

Read-outs that look alike come from different tables or passages of the source.

B1: No. 260 항체 (Full IgG) (antibody, V domains shown)
VH: EVQLVESGGGLVQPGRTLRLSCAASGFTFDDYAMHWVRQPPGKGLEWVSGIDWNSGLIGYADAVKGRFTLSRDNAKNSIFLQMNSLRAEDTALYYCVKDMGSTGGYYGMDVWGQGTTVIVSS
VL: not shown
For the molecule B1, the entries for the “IC50, PRNT” value in experiment [1], in experiment [2] and in experiment [3] were above 1 µg/mL, above 1 µg/mL and 0.401 µg/mL, respectively.

B2: No. 217 항체 (Full IgG) (antibody, V domains shown)
VH: EVQLVESGGGVVQPGRSLRLSCAASGFTFSRFAMHWVRQAPGKGLEWVAVVSYDGSNNYYADSVKGRFTISRDNSKNTLYLQMNSLRAEDTAVYYCARGDYYGSGSYYNPSPFFDYWGQGTLVTVSS
VL: not shown
As to B2, in experiment [3], the “IC50, PRNT” value was 5.95 µg/mL.

B3: No. 218 항체 (Full IgG) (antibody, V domains shown)
VH: QVQLVQSGGGVVQPGRSLRLSCAASGFTFSSFAMHWVRQAPGKGLEWVAVISFDGSNKYYADSVKGQFTISRDNSKNTLYLQMNSLRAEDTAVYYCARGDYYGSGSYYNPSPFFDYWGQGTLVTVSS
VL: ELELTQPPSVSGTPGQRVSISCSGSTSNIGSNPVNWFQQLPGTAPKLLIYSNNQRPSGVPNRFSGSKSGTSASLAISGLQSDDEADYYCAAWDDSLNGWVFGGGTKVTVL
Turning to B3, in experiment [3], the “IC50, PRNT” value turned out to be 0.562 µg/mL.

B4: No. 230 항체 (Full IgG) (antibody, V domains shown)
VH: QVQLVQSGGGVVQPGRSLRLSCAASGFTFSNFAMHWVRQAPGKGLEWVAVISYDGSNKYYADSVKGRFTISRDNFKNTLYLQMNSLRAEDTAVYYCARGDYYGSGSYYNPSPFFDYWGQGTLVTVSS
VL: not shown
As to B4, in experiment [3], the “IC50, PRNT” value stood at 0.432 µg/mL.

B5: No. 152 항체 (Full IgG) (antibody, V domains shown)
VH: QITLKESGPSLVKPSQTLTLTCTFSGFSLTTSGMGVGWIRQPPGKALEWLALIDWDDNKYYTTSLKTRLTISKDTSKNQVVLTMTNMDPVDTATYYCARIPGFLRYRNRYYYYGMDVWGQGTTVTVSS
VL: ELVLTQPPSVSAAPGQKVTISCSGRSSNIGNNYVSWYQQLPGTAPKLLIYDNNKRPSGIPDRFSGSKSGTSATLGITGLQTGDEADYYCGTWDSSLSAGVFGGGTQLTVL
For the molecule B5, the “IC50, PRNT” value in experiment [3] is 0.0062 µg/mL.

B6: No. 284 항체 (Full IgG) (antibody, V domains shown)
VH: QVQLVQSGGGLVQPGGSLRLSCAASGVTVSSNYMSWVRQAPGKGLEWVSVIYSGGSTYYADSVKGRFTISRHNSKNTLYLQMNSLRAEDTAVYYCARGHVDIPYGMDVWGQGTTVTVSS
VL: ELVLTQPPSVSAAPGQKVTISCSGSSSNIGNNYVSWYQQLPGTAPKLLIYDNNKRPSGIPDRFSGSKSGTSATLGITGLQTGDEADYYCGTWDSSLSAGVFGGGTQLTVL
In the case of B6, the “IC50, PRNT” value in experiment [3] is 0.702 µg/mL.

B7: No. 270 항체 (Full IgG) (antibody, V domains shown)
VH: QVQLVQSGGGLVQPGGSLRLSCAASGLTVSSNYMTWVRQAPGKGLEWVSVIYSGGSTFYADSVKGRFTISRDNSKNTLYLQMNSLRAEDTAVYYCARDLVVYGMDVWGQGTTVTVSS
VL: ELVLTQSPGTLSLSPGERATLSCRASQSVSSYLAWYQQKPGQAPRLLIYDASNRATGIPARFSGSGSGTDFTLTISSLEPEDFAVYYCQQYGSSPLTFGGGTKVDIK
Regarding B7, in experiment [3], the “IC50, PRNT” value was determined as 0.152 µg/mL.

B8: No. 275 항체 (Full IgG) (antibody, V domains shown)
VH: EVQLVESGGGLVQPGGSLRLSCAASGFTVSSNYMTWVRQAPGKGLEWVSVIYSGGSTFYADSVKGRFTISRDNSKNTLYLQMNSLRAEDTAVYYCARDLVVYGMDVWGQGTTVTVSS
VL: ELVLTQPPSVSVAPGKTARITCGGNNIGSNTVNWYQQLPGTAPKLLIYSNNLRPSGVPDRFSGSKSGTSASLAISGLQSEDEADYYCAAWDDSLNGPVFGGGTKVTVL
Turning to B8, in experiment [3], the “IC50, PRNT” value stood at 0.272 µg/mL.

B9: No. 271 항체 (Full IgG) (antibody, V domains shown)
VH: EVQLVESGGGLVQPGGSLRLSCAASGFTVSSNYMTWVRQAPGKGLEWVSVIYSGGSTFYADSVKGRFTISRDNSKNTLYLQMNSLRAEDTAVYYCARDLVVYGMDVWGQGTTVTVSS
VL: ELELTQPPSASGTPGQRVTISCSGSSSNIGSNTVNWYQQLPGTAPKLLIYSNNQRPSGVPDRFSGSKSGTSASLAISGLQSEDEADYYCSSYAGSNNLVFGGGTKLTVL
In the case of B9, the “IC50, PRNT” value in experiment [3] was found to be 1.68 µg/mL.

B10: No. 274 항체 (Full IgG) (antibody, V domains shown)
VH: EVQLVESGGGLVQPGGSLRLSCAASGFTVSSNYMTWVRQAPGKGLEWVSVIYSGGSTFYADSVKGRFTISRDNSKNTLYLQMNSLRAEDTAVYYCARDLVVYGMDVWGQGTTVTVSS
VL: ELELTQPPSVSGAPGQRVTISCTGSSSNIGAGYDVHWYQQLPGTAPKLLIYGNSNRPSGVPDRFSGSKSGTSASLAITGLQAEDEADYYCQSYDSSLGVVFGGGTKVTVL
As for B10, the “IC50, PRNT” value in experiment [3] was determined as 0.301 µg/mL.

B11: No. 281 항체 (Full IgG) (antibody, V domains shown)
VH: QVQLVQSGGGLVQPGGSLRLSCAASGITVSSNYMSWVRQAPGKGLEWVSVIYSGGSTNYADSVKGRFTISRDNSKNTLYLQMNSLRAEDTAVYYCARDLIVYGMDVWGQGTTVTVSS
VL: ELVLTQPPSVSGAPGQRVTISCTGSSSNIGAGYDVHWYQQLPGTAPKLLIYGNSNRPSGVPDRFSGSKSGTSASLAITGLQAEDEADYYCAAWDDSLSGWVFGGGTKVTVL
On to B11, for which the “IC50, PRNT” value in experiment [3] came to 1.43 µg/mL.
